The test deals with unprocessed hMPV PreF trimer (wild-type hMPV F ectodomain trimer, strain B2, C-terminal GCN4 trimerization … (human metapneumovirus, strain B2)). In words: ELISA. (In general: An ELISA detects its analyte on a solid surface through an enzyme-linked reagent.)

B1: M4B06 IgG (antibody, V domains shown)
VH: EVQLLESGGGFVQPGGSLRLSCVVTGFTFSNYAMCWVRQAPGKGPEWVSGIGGSVGTTYYADSVKGRFTISRDNSKNTLYLQMSGLRAEDTARYYCAKVPSFFVFEDGFDMWGQGTVVTVSS
VL: QSVLTQPPSASGNPGQRVTISCYGSGSNIGNNYVHWFRQLPGTAPRLLIYNTDILVPGVPDRFSGSESGTSASLAISGLQSGDEADYFCAAWDDTLNGYVFGPGTTVTVL
What is called EC50 is the concentration needed to bring the measured effect to its halfway point. Lower therefore signals greater potency. With B1, the EC50 came out at 4.4 ng/mL.
